From patent publication US20230331800A1 come the findings set out here.

The target in assay [1] is IL2 receptors on lymphocyte populations of human PBMCs (human) (UniProt P01589). In words: cell-based or functional assay.
The target of assay [2] is OT-I TCR (ovalbumin(257-264)-specific T cell receptor of OT-1 TCR transgenic mouse CD8+ T cells) (mouse). Kind of assay: cell-based or functional assay. The note with it: scale: orders of magnitude higher potency than T5-IL2M6.

Chain of UniProt P01589 (P01589 22-272, chain 1 of 3): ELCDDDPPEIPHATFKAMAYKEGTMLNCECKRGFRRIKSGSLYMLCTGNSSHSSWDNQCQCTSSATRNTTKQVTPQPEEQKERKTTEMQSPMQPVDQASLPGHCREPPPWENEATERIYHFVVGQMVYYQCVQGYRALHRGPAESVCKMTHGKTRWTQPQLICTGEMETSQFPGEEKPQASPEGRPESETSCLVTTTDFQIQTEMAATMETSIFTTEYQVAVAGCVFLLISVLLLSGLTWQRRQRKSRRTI
Chain of UniProt P01589 (P14784 27-551, chain 2 of 3, further chain): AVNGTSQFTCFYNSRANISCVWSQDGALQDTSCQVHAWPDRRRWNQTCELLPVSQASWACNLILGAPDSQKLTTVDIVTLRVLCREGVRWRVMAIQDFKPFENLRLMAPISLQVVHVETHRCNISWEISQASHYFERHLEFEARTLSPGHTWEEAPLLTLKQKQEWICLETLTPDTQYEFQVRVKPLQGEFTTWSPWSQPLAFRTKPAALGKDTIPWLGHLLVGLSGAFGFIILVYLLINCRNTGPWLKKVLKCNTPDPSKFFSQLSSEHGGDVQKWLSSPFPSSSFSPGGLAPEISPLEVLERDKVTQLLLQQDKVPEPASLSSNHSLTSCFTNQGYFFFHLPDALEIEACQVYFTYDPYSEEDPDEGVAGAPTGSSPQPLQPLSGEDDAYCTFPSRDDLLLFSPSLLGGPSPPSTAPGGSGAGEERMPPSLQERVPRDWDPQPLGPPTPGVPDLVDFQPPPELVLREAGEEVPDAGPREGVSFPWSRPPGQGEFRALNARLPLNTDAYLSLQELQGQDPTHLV
Chain of UniProt P01589 (P31785 23-369, chain 3 of 3, further chain): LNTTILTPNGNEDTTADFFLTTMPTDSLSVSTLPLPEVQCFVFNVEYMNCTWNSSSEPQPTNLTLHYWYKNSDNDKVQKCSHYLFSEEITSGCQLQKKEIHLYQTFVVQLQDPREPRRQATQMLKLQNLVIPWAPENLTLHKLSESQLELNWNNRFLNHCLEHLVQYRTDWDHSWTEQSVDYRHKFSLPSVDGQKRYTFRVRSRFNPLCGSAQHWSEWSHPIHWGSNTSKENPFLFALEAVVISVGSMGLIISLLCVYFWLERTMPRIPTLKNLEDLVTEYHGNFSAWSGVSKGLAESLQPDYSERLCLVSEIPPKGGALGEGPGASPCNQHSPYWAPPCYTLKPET

Substance “IL2M2: Human IL2-(GGGGS)4-human IL-2Ra-GGGGS-Fc (Fc fusion)” came in with a potency in STAT5 phosphorylation on multiple lymphocyte populations (FIG. 12A-C), against IL2M0 (fold less potent than IL2M0) in assay [1] of 100.
“IL2M5: Fc-GGGGS-human IL2 (N88D, C125A) fusion (Fc fusion)”: in assay [1], the potency in STAT5 phosphorylation on multiple lymphocyte populations (FIG. 14A-C), against IL2M4 (fold less potent than IL2M4) is over 100.
In turn, “T4-IL2M6: OVA(257-264)-GCGGS-(GGGGS)2-mB2m-(GGGGS)4-mH2Kb-(GGGGS)4-Fc-(GGGGS)3-hIL2(H16A, F42A) (Fc fusion)” came in with a potency in inducing STAT5 phosphorylation in CD8+ OT-I T cells, against T5-IL2M6 in assay [2] of 2.
